Laboratory results reported in paper PMC4866770 (PLoS ONE, 2016).

Target: amyloid precursor protein (APP) (human (endogenous in HEK293), UniProt P05067 18-770)
Test: cell-based or functional assay

amyloid precursor protein (APP), sequence (P05067 18-770): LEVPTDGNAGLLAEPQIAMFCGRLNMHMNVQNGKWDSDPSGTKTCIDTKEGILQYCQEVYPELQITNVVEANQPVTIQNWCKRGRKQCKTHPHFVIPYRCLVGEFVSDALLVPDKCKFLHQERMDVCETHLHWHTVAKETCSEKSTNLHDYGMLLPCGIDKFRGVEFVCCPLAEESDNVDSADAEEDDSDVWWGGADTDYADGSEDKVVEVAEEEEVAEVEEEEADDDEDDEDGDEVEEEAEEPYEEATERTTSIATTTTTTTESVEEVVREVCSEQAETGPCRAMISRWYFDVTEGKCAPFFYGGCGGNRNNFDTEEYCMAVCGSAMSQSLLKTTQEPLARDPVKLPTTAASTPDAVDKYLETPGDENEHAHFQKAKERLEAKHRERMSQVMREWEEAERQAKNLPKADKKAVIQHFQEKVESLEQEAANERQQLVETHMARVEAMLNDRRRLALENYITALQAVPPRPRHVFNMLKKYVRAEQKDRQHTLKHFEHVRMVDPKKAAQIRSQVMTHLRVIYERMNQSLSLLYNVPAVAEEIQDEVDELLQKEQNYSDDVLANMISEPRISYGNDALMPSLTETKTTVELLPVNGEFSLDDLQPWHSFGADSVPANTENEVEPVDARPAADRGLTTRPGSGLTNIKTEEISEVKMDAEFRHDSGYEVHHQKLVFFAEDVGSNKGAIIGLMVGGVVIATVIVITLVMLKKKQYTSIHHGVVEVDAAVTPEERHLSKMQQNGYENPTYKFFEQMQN

GAL4-dependent firefly luciferase reporter in HEK293 with pMST-APP (full-length APP fused to the GAL4 DNA binding domain): increase of APP transcriptional activity: ~14 fold
B1: FLAG-Fe65 (natural protein, human, UniProt O00213-2 1-708, looked up)
chain: MSVPSSLSQSAINANSHGGPALSLPLPLHAAHNQLLNAKLQATAVGPKDLRSAMGEGGGPEPGPANAKWLKEGQNQLRRAATAHRDQNRNVTLTLAEEASQEPEMAPLGPKGLIHLYSELELSAHNAANRGLRGPGLIISTQEQGPDEGEEKAAGEAEEEEEDDDDEEEEEDLSSPPGLPEPLESVEAPPRPQALTDGPREHSKSASLLFGMRNSAASDEDSSWATLSQGSPSYGSPEDTDSFWNPNAFETDSDLPAGWMRVQDTSGTYYWHIPTGTTQWEPPGRASPSQGSSPQEESQLTWTGFAHGEGFEDGEFWKDEPSDEAPMELGLKEPEEGTLTFPAQSLSPEPLPQEEEKLPPRNTNPGIKCFAVRSLGWVEMTEEELAPGRSSVAVNNCIRQLSYHKNNLHDPMSGGWGEGKDLLLQLEDETLKLVEPQSQALLHAQPIISIRVWGVGRDSGRDFAYVARDKLTQMLKCHVFRCEAPAKNIATSLHEICSKIMAERRNARCLVNGLSLDHSKLVDVPFQVEFPAPKNELVQKFQVYYLGNVPVAKPVGVDVINGALESVLSSSSREQWTPSHVSVAPATLTILHQQTEAVLGECRVRFLSFLAVGRDVHTFAFIMAAGPASFCCHMFWCEPNAASLSEAVQAACMLRYQKCLDARSQASTSCLPAPPAESVARRVGWTVRRGVQSLWGSLKPKRLGAHTP
